Assay [1] deals with Feline_OSMR_hlgG1_Fc (feline). Description: SPR Biacore, OSMR on chip. For orientation: In SPR one partner is held on a chip, and binding of the other changes the refractive index at the surface.
Assay [2] has as its target Feline_OSMR_hlgG1_Fc (feline). Description: SPR Biacore.
Assay [3] addresses Feline_OSMR_hlgG1_Fc (feline). The experiment in a line: indirect ELISA, fOSMR coated; OD ratio to antibody expression control. A general note: In an ELISA, binding on a coated surface is turned into a signal by an enzyme label.
Assay [4] addresses Canine_OSMR_hlgG1_Fc (canine). Description: SPR Biacore, OSMR on chip.
Assay [5] addresses Canine_OSMR_hlgG1_Fc (canine). Description: SPR Biacore.

Feline_OSMR_hlgG1_Fc (feline), sequence (chain, as listed by the source limits assumed, form in doubt): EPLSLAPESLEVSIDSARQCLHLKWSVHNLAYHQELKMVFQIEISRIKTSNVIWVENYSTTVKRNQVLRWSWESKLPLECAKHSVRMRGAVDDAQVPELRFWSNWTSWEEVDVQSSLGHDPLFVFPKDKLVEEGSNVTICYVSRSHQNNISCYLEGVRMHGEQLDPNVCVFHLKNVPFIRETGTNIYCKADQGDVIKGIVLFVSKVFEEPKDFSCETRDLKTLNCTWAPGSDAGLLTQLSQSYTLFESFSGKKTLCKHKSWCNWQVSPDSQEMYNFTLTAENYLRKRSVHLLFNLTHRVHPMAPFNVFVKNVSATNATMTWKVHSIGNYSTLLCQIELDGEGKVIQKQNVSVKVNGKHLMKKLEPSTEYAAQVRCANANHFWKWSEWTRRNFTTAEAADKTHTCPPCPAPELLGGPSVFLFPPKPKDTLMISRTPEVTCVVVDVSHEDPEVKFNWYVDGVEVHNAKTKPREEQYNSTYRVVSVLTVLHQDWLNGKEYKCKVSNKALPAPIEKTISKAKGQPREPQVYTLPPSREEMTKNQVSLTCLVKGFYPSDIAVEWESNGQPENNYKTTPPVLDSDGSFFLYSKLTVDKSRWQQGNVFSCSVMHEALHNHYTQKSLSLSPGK
Canine_OSMR_hlgG1_Fc (canine), sequence (chain, as listed by the source limits assumed, form in doubt): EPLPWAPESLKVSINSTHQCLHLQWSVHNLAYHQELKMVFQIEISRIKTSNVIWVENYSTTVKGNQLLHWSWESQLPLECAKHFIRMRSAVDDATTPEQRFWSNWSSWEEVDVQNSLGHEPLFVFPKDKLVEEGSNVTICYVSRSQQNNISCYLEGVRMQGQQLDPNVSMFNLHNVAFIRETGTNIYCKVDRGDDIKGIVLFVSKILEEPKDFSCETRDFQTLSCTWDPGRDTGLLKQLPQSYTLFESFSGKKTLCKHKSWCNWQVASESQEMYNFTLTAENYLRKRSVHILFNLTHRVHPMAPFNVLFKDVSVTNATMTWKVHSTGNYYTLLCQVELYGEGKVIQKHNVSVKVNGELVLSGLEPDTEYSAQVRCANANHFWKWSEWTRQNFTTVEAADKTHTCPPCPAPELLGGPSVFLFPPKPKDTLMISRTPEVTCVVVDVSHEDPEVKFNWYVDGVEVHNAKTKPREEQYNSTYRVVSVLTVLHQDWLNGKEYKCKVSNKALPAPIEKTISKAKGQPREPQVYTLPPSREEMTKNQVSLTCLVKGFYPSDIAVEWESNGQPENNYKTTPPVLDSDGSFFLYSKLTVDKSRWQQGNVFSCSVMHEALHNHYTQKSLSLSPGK

B1: Mu_02D09 (antibody, V domains shown)
VH: EVQLVESGGGLVKPGGSLTLSCAASGFTFSDYGMHWLRQAPEKGLEWVAYISSGSRAVFFADTVKGRFTISRDNAKNTLFLQMTSLRSDDTAMYYCARDRYDGRGFAYWGQGTLVTVSA
VL: DIVLTQSPATLSVTPGDSVSLSCRASQSISNNLHWYQQTSHESPRLLITYASQSISGIPSRFSGSGSGTDFTLSINSVETEDFGMYFCQQSNSWPLTFGAGTKLELK
As usually defined, the Kd is the free concentration of one partner at which half of the binding sites on the other are occupied at equilibrium, for simple one-to-one binding. A lower Kd goes with higher affinity. In the case of B1, the Kd in assay [1] stood at 8.96 nM.

B2: mouse: canine 02D09 chimera (antibody, V domains shown)
VH: EVQLVESGGGLVKPGGSLTLSCAASGFTFSDYGMHWLRQAPEKGLEWVAYISSGSRAVFFADTVKGRFTISRDNAKNTLFLQMTSLRSDDTAMYYCARDRYDGRGFAYWGQGTLVTVSA
VL: DIVLTQSPATLSVTPGDSVSLSCRASQSISNNLHWYQQTSHESPRLLITYASQSISGIPSRFSGSGSGTDFTLSINSVETEDFGMYFCQQSNSWPLTFGAGTKLELKR
Usually koff stands for a measure of how fast the partners let go of each other. A low value points to a long-lived complex. In general, kon refers to the second-order rate constant of association. A lower kon goes with slower complex formation. For the molecule B2, in assay [2], the Kd came to 9.08 nM, the koff worked out at 0.00119 s⁻¹ and the kon came to 131000 M⁻¹ s⁻¹. Further, in assay [3], the ELISA ratio stood at 1.61 OD ratio. Besides, in assay [1], the Kd was determined as 6.65 nM, the koff is 0.000942 s⁻¹ and the kon was found to be 142000 M⁻¹ s⁻¹. In addition, in assay [4], the Kd was determined as 12.8 nM, the koff was 0.00328 s⁻¹ and the kon came out at 256000 M⁻¹ s⁻¹.

B3: Mu_14C04 (antibody, V domains shown)
VH: EVQLQESGAELVKPGASVKISCKASGYAFSNYWMNWMKQRPGKGLEWIGQIYPGHVNTNYNGNFKDKATLTADKSSSTAYMQLSSLTSEDSAVYFCARSADNSGFVLFAYWGQGTLVTVS
VL: DIVLTQSPASLAVSLGQRATISCRASKSVSTSGYSYLHWYQQKPGQPPKLLIFLASNLESGVPARFSGSGSGTDFTLNIHPVEEEDAATYYCQHSRELPLTFGAGTKLELK
On to B3, for which the Kd in assay [4] was found to be 14.2 nM.

B4: Mu_19F07 (antibody, V domains shown)
VH: EVKLVESEGGLVQPGSSMKLSCTASGFTFSDYYMAWVRQVPEKGLEWVANINYDGSSTYYLDSLKSRFIISRDNAKNILYLQMSSLKSEDTATYYCARGLTWDFDVWGTGTTVTVSS
VL: DIVMTQSHKFMSPSVGDRVSITCKASQDVDTAVAWYQQKPGQSPKLLIYLASTRHTGVPDRFTGSGSGTDFTLTISNVQSEDLADYFCQQYSRFPLTFGAGTKLELK
Take B4: the Kd is 0.0207 nM in assay [1] and 0.951 nM in assay [4].

B5: Mu_09E09 (antibody, V domains shown)
VH: DVKLVESGEGLVKPGGSLKLSCAASGFTFSSYAMSWVRQTPEKRLEWVAYISSGGDYIYYADTVKGRFTISRDNARNTLYLQMSSLKSEDTAMYYCTRDPITGTFAYWGQGTLVTVSA
VL: DLQMTQTTSSLSASLGDRVTISCRASQDINNYLNWYQQKPDGTVKLLIYYTSTLHSGVPSRFSGSGSGTDYSLTISNLEQEDIATYFCQQGNTLPWTFGGGTKLEIK
For the molecule B5, the Kd in assay [1] was 3.75 nM; in assay [4], 7.87 nM.

B6: Mu_10F07_VL (SEQ ID NO: 41)_T53A (antibody, V domains shown)
VH: DVKLVESGEGLVKPGGSLKLSCAASGFTFSSYAMSWVRQTPEKRLEWVTYISSGGDYFYYADTVKGRFTISRDNARNTLYLQMSSLKSEDTAMYYCTRDPITGTFAYWGQGTLVTVSA
VL: DIQMTQTTSSLSASLGDRVTISCRASQDITNYLNWYQQKPDGTVKLLIYYTSALHSGVPSRFSGSGSGTDFSLTISNLEQEDIATYFCQQGHMLPWTFGGGTKLEIKR
As to B6, in assay [2], the Kd amounted to 1.83 nM, the koff worked out at 0.000468 s⁻¹ and the kon was determined as 255000 M⁻¹ s⁻¹. Besides, in assay [5], the Kd stood at 3.94 nM, the off-rate constant (koff) came to 0.000256 s⁻¹ and the kon turned out to be 65000 M⁻¹ s⁻¹. Also, the ELISA ratio in assay [3] is 0.217 OD ratio.

B7: Mu_10F07_VL (SEQ ID NO: 41)_W96A (antibody, V domains shown)
VH: DVKLVESGEGLVKPGGSLKLSCAASGFTFSSYAMSWVRQTPEKRLEWVTYISSGGDYFYYADTVKGRFTISRDNARNTLYLQMSSLKSEDTAMYYCTRDPITGTFAYWGQGTLVTVSA
VL: DIQMTQTTSSLSASLGDRVTISCRASQDITNYLNWYQQKPDGTVKLLIYYTSTLHSGVPSRFSGSGSGTDFSLTISNLEQEDIATYFCQQGHMLPATFGGGTKLEIKR
Regarding B7, in assay [2], the Kd was found to be 7.03 nM, the off-rate (koff) was 0.00158 s⁻¹ and the kon stood at 225000 M⁻¹ s⁻¹. In addition, in assay [5], the Kd was 40 nM, the koff was determined as 8.63 s⁻¹ and the kon was 2.16e+08 M⁻¹ s⁻¹. The ELISA ratio in assay [3] turned out to be 0.134 OD ratio.

B8: Mu_10F07_VH (SEQ ID NO: 39)_Y107A (antibody, V domains shown)
VH: DVKLVESGEGLVKPGGSLKLSCAASGFTFSSYAMSWVRQTPEKRLEWVTYISSGGDYFYYADTVKGRFTISRDNARNTLYLQMSSLKSEDTAMYYCTRDPITGTFAAWGQGTLVTVSA
VL: DIQMTQTTSSLSASLGDRVTISCRASQDITNYLNWYQQKPDGTVKLLIYYTSTLHSGVPSRFSGSGSGTDFSLTISNLEQEDIATYFCQQGHMLPWTFGGGTKLEIKR
Turning to B8, in assay [2], the dissociation constant Kd came out at 1.43 nM, the koff is 0.000247 s⁻¹ and the kon amounted to 173000 M⁻¹ s⁻¹. Also, in assay [5], the Kd was 1.69 nM, the koff was 6.76e-05 s⁻¹ and the kon was determined as 40100 M⁻¹ s⁻¹. In assay [3], the ELISA ratio is 0.375 OD ratio.

B9: Mu_10F07_VL (SEQ ID NO: 41)_T97A (antibody, V domains shown)
VH: DVKLVESGEGLVKPGGSLKLSCAASGFTFSSYAMSWVRQTPEKRLEWVTYISSGGDYFYYADTVKGRFTISRDNARNTLYLQMSSLKSEDTAMYYCTRDPITGTFAYWGQGTLVTVSA
VL: DIQMTQTTSSLSASLGDRVTISCRASQDITNYLNWYQQKPDGTVKLLIYYTSTLHSGVPSRFSGSGSGTDFSLTISNLEQEDIATYFCQQGHMLPWAFGGGTKLEIKR
For B9, in assay [2], the Kd was 1.63 nM, the koff came out at 0.000282 s⁻¹ and the kon stood at 172000 M⁻¹ s⁻¹. Further, in assay [5], the Kd was determined as 5.32 nM, the koff was 0.000219 s⁻¹ and the on-rate constant (kon) was found to be 41200 M⁻¹ s⁻¹. Besides, the ELISA ratio in assay [3] is 0.298 OD ratio.

B10: Mu_10F07 (antibody, V domains shown)
VH: DVKLVESGEGLVKPGGSLKLSCAASGFTFSSYAMSWVRQTPEKRLEWVTYISSGGDYFYYADTVKGRFTISRDNARNTLYLQMSSLKSEDTAMYYCTRDPITGTFAYWGQGTLVTVSA
VL: DIQMTQTTSSLSASLGDRVTISCRASQDITNYLNWYQQKPDGTVKLLIYYTSTLHSGVPSRFSGSGSGTDFSLTISNLEQEDIATYFCQQGHMLPWTFGGGTKLEIK
As for B10, the Kd in assay [1] turned out to be 1.59 nM; in assay [4] it was 2.03 nM.

B11: Mu_10F07_VL (SEQ ID NO: 41)_L33A (antibody, V domains shown)
VH: DVKLVESGEGLVKPGGSLKLSCAASGFTFSSYAMSWVRQTPEKRLEWVTYISSGGDYFYYADTVKGRFTISRDNARNTLYLQMSSLKSEDTAMYYCTRDPITGTFAYWGQGTLVTVSA
VL: DIQMTQTTSSLSASLGDRVTISCRASQDITNYANWYQQKPDGTVKLLIYYTSTLHSGVPSRFSGSGSGTDFSLTISNLEQEDIATYFCQQGHMLPWTFGGGTKLEIKR
As to B11, in assay [2], the Kd stood at 1.53 nM, the koff was 0.000274 s⁻¹ and the association rate constant (kon) was found to be 179000 M⁻¹ s⁻¹. In assay [5], this molecule displayed a Kd of 5.48 nM, a koff of 0.000222 s⁻¹ and a kon of 40500 M⁻¹ s⁻¹. In addition, the ELISA ratio in assay [3] worked out at 0.15 OD ratio.

For the origin of these results see patent publication US20220177594A1.
